Results from patent publication US20230340151A1 (Pfizer, published 2023).
Like-named read-outs stand apart in the source and are kept apart here.

How the values were obtained:
[1] = biological target: T1, Human CD3 epsilon-delta (human); test: SPR, recombinant human CD3
T1 construct: Single-chain epsilon-linker-delta with His6; also called huCD3
T1 chain: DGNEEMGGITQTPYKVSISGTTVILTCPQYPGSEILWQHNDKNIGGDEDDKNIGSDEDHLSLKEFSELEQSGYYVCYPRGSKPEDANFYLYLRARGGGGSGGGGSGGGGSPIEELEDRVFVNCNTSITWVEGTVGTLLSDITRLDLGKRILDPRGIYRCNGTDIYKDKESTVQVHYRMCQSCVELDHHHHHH

[2] = biological target: T2, Cynomolgus CD3 epsilon-delta (cynomolgus); test: SPR, CD3 captured by anti-His, printed 25 C (Table 33F)
T2 chain: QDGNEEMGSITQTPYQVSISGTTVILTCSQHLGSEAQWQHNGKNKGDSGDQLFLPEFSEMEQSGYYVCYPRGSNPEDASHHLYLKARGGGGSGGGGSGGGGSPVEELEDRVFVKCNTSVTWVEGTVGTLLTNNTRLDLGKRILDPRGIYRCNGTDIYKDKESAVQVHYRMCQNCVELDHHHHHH

[3] = biological target: T3, Human GUCY2c on tumor cells (T84, HT55) (human, UniProt P25092 24-1073); test: cell-based or functional assay
T3 sequence (P25092 24-1073 limits assumed): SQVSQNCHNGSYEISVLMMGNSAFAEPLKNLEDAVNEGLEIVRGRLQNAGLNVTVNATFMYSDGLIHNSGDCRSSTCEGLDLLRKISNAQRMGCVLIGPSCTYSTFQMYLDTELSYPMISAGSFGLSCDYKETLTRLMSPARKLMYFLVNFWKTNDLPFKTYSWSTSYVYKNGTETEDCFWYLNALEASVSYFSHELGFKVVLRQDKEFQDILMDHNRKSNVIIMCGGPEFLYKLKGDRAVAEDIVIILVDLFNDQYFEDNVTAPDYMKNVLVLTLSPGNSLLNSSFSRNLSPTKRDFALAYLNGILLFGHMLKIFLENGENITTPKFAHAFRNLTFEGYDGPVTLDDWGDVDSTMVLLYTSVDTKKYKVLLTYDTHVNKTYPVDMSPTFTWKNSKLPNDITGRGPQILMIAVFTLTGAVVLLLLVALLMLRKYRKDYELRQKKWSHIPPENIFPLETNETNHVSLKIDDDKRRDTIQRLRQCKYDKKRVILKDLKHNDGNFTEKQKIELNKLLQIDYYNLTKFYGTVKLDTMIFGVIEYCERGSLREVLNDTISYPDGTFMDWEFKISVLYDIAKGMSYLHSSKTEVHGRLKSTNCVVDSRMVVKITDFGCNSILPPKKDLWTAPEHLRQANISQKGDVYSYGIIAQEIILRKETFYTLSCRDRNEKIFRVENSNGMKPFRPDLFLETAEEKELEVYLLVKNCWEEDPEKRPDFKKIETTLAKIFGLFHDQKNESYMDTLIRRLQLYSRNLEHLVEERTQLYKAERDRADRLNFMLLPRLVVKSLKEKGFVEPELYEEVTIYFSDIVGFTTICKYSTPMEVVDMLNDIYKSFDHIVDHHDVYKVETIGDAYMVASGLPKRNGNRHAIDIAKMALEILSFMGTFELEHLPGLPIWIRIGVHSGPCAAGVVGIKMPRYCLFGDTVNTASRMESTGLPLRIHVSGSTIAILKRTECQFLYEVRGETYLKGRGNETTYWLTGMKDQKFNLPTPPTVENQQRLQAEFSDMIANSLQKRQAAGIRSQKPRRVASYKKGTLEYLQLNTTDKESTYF

[4] = biological target: T4, Cynomolgus GUCY2C-ECD Cleaved (cynomolgus, UniProt P25092 24-430 (human entry)); test: SPR, GUCY2c directly immobilized, 25 C
T4 construct: also called CyGUCY2C
T4 chain: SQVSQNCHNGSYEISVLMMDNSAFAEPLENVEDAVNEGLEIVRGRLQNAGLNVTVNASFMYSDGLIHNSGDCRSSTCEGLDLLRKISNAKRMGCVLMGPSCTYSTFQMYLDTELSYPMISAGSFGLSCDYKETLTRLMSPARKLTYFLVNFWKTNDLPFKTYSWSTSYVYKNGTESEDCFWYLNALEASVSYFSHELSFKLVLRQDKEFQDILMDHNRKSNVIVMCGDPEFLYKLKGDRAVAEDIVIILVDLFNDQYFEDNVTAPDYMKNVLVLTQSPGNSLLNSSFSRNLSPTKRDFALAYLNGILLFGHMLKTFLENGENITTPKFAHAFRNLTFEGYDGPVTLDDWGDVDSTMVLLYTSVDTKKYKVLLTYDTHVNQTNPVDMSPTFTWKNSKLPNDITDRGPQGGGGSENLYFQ

[5] = biological target: T4, Cynomolgus GUCY2C-ECD Cleaved; test: direct DELFIA, 60 C
[6] = biological target: T5, Human CD3 on naive human T cells (human, UniProt P07766 23-207); test: cell-based or functional assay
[7] = biological target: T3, Human GUCY2c on tumor cells (T84, HT55); test: cell-based or functional assay; remark: listed apart in the source
[8] = biological target: T6, Human GUCY2C full length (SEQ ID NO: 224), recombinant protein (human, UniProt P25092 24-430, limits assumed); test: SPR, GUCY2c directly immobilized, 25 C
T6 construct: also called huGUCY2C; biotinylated human GUCY2c
T6 sequence (P25092 24-430 F281L limits assumed): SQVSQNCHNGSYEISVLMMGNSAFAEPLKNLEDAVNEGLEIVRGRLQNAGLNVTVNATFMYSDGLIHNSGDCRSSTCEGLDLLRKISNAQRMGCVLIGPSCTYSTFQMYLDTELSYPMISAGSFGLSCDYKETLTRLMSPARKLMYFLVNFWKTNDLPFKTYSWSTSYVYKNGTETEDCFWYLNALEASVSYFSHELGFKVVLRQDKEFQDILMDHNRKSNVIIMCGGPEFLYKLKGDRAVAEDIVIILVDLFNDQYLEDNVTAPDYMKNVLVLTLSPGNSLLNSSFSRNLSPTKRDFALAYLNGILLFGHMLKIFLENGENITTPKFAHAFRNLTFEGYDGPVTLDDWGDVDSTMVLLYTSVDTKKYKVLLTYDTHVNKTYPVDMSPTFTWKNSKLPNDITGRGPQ

[9] = biological target: T6, Human GUCY2C full length (SEQ ID NO: …); test: SPR, GUCY2c directly immobilized, 37 C
[10] = biological target: CID1943 (human GUCY2c point mutant) (human); test: flow cytometry on cells displaying the construct
[11] = biological target: CID1941 (human GUCY2c point mutant) (human); test: flow cytometry on cells displaying the construct
[12] = biological target: T7, Murine GUCY2C-ECD cleaved (mouse, UniProt Q3UWA6 20-433); test: SPR, GUCY2c directly immobilized, 37 C
T7 sequence: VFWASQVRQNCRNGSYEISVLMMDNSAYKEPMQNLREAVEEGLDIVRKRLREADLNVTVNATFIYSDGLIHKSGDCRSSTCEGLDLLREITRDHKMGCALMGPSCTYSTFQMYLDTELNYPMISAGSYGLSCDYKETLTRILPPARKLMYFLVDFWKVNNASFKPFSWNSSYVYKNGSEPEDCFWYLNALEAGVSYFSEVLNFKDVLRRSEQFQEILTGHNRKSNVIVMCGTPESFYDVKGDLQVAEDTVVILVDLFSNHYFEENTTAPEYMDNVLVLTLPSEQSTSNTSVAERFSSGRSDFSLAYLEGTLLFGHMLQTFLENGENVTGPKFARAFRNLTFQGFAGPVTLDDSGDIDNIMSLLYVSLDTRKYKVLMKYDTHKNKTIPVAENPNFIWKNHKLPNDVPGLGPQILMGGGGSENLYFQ

[13] = biological target: T2, Cynomolgus CD3 epsilon-delta; test: SPR, CD3 captured by anti-His, 25 C
[14] = biological target: T4, Cynomolgus GUCY2C-ECD Cleaved; test: SPR, GUCY2c directly immobilized, 37 C
[15] = biological target: T1, Human CD3 epsilon-delta; test: SPR, CD3 captured by anti-His, 25 C
[16] = biological target: T5, Human CD3 on naive human T cells; test: flow cytometry titration on naive human T cells (PE-A Geo Mean against concentration in nM)

B1: GUCY2C-1608 (bispecific antibody)
chain 1: DIQLTQSPSSLSASVGDRVTITCRASESVDYYGSSLLQWYQQKPGKAPKLLIYAASKLASGVPSRFSGSGSGTDFTLTISSLQPEDFATYYCQQTRKAYTFGQGTKLEIKGGGSGGGGEVQLVESGGGLVQPGGSLRLSCAASGFTFSDYYMTWVRQAPGKGLEWVAFIRNQARGYTSDHNPSVKGRFTISRDNAKNSLYLQMNSLRAEDTAVYYCARDRPSYYVLDYWGQGTTVTVSSGCPPCPAPEAAGAPSVFLFPPKPKDTLMISRTPEVTCVVVDVSHEDPEVKFNWYVDGVEVHNAKTKPREEQYNSTYRVVSVLTVLHQDWLNGKEYKCKVSNKALPAPIEKTISKAKGQPREPQVCTLPPSREEMTKNQVSLWCLVKGFYPSDIAVEWESNGQPENNYKTTPPVLDSDGSFFLYSKLTVDKSRWQQGNVFSCSVMHEALHNHYTQKSLSLSPG
chain 2: DIQMTQSPSSLSASVGDRVTITCTSSQSLFNVRSQKNYLAWYQQKPGKAPKLLIYWASTRESGVPSRFSGSGSGTDFTLTISSLQPEDFATYYCKQSYDLFTFGGGTKVEIKGGGGSGGGGEVQLVESGGGLVQPGGSLRLSCAASGFTFSSYWMHWVRQAPGKGLEWIGEIKPSNELTNVHEKFKDRFTISVDKAKNSAYLQMNSLRAEDTAVYYCTRTITTTEGYWFFDVWGQGTLVTVSSGCPPCPAPEAAGAPSVFLFPPKPKDTLMISRTPEVTCVVVDVSHEDPEVKFNWYVDGVEVHNAKTKPREEQYNSTYRVVSVLTVLHQDWLNGKEYKCKVSNKALPAPIEKTISKAKGQPREPQVYTLPPCREEMTKNQVSLSCAVKGFYPSDIAVEWESNGQPENNYKTTPPVLDSDGSFFLVSKLTVDKSRWQQGNVFSCSVMHEALHNHYTQKSLSLSPG
notes: also called GUCY2c CD3 bispecific
[1]
  Kd: 128 nM
[2]
  Kd: 130 nM
  koff: 0.0665 s⁻¹
  kon: 514000 M⁻¹ s⁻¹
[3]
  T84 tumor cell EC50 (T cell cytotoxicity, E:T 5:1): 0.19 nM
[4]
  Kd: 3.01 nM
  koff: 0.000417 s⁻¹
  kon: 138000 M⁻¹ s⁻¹
[5]
  EC50: 49.9 nM
[6]
  In vitro Cytotoxicity (nM), T-cell retargeting assay: 0.772 nM
[7]
  T84 tumor cell EC50 (T cell cytotoxicity, E:T 5:1): 0.19 nM
[8]
  Kd: 7.47 nM
  koff: 0.000758 s⁻¹
  kon: 101000 M⁻¹ s⁻¹
[9]
  Kd: 13.5 nM
  koff: 0.00217 s⁻¹
  kon: 161000 M⁻¹ s⁻¹
[10]
  binding result: binds
[11]
  binding result: binds
[12]
  Kd: 90.2 nM
  koff: 0.0116 s⁻¹
  kon: 129000 M⁻¹ s⁻¹
[13]
  Kd: 24.1 nM
  koff: 0.00916 s⁻¹
  kon: 381000 M⁻¹ s⁻¹
[14]
  Kd: 8.68 nM
  koff: 0.00166 s⁻¹
  kon: 191000 M⁻¹ s⁻¹
[15]
  Kd: 24 nM
  koff: 0.00999 s⁻¹
  kon: 418000 M⁻¹ s⁻¹
[16]
  Kd: 35.4 nM
